# Laboratory results reported in patent publication US20200283523A1.
# Target: C1Q (UniProt P02745)
# Experiment: ELISA, antibody coated on the plate, C1q titrated (axis [C1q] nM), anti-human C1q-HRP detection
# Chain of C1Q (P02745 23-245 limits assumed, chain 1 of 3): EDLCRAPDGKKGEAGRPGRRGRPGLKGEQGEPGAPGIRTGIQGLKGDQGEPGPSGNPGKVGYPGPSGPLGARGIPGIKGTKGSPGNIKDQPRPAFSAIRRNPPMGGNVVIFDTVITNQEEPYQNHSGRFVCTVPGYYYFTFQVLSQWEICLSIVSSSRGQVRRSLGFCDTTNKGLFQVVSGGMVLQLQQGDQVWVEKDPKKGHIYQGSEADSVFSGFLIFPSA
# Chain of C1Q (P02746 28-253 limits assumed, chain 2 of 3, further chain): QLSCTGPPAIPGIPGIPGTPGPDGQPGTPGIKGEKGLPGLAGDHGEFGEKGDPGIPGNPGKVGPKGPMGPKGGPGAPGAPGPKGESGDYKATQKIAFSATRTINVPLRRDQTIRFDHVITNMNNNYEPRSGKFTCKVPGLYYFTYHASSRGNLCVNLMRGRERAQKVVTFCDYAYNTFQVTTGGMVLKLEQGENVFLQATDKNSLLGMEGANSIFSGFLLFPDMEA
# Chain of C1Q (P02747 29-245 limits assumed, chain 3 of 3, further chain): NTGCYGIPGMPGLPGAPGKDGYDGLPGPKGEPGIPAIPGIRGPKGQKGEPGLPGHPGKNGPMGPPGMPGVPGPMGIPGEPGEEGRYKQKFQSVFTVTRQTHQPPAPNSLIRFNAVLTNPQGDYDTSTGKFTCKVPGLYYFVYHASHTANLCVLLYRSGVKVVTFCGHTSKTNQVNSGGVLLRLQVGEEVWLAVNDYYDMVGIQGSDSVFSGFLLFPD
substance,measurement,value
control human IgG1 antibody,EC50 (read off the curve),30 nM
